According to PMC3492137:

Columns and labels:
[1] = target: human immunoglobulin G, biotinylated; assay: microtiter plate dissociation assay (immobilised mutant, hIgG-biotin detected with streptavidin-alkaline phosphatase, A405); conditions: 2 µg/ml mutant conjugated, 6 µM hIgG-biotin, read off a plot, scale: normalized absorbance at 405 nm
[2] = target: Fc portion of human immunoglobulin G, biotinylated; assay: yeast surface display end-point dissociation assay, flow cytometry (strep-PE); conditions: dissociation at pH 4.5 for 30 min; parent: est. 0.88; read off a plot; scale: normalized fluorescence
[3] = dissociation at pH 2.5 for 30 min, parent: est. 0.33
[4] = dissociation at pH 3.5 for 30 min, parent: est. 0.91
[5] = dissociation at pH 4.5 for 30 min, parent: est. 1.0

response [1, 3] | response [1, 4] | response [1, 5] | response [2] | Substance
0.35 | 0.87 | 1 | – | Sso7d-hFc with a C-terminal cysteine Sso7d-ev-hFc
0.33 | 0.79 | 1 | – | Sso7d-hFc with a C-terminal cysteine Y40H
– | – | – | 0.06 | Sso7d-hFc, yeast cell surface fusion Sso7d-ev-hFc
– | – | – | 0.1 | Sso7d-hFc, yeast cell surface fusion Y40H
